The values below come from PMC11266516.

This assay concerns the target Fc gamma receptors on mouse peritoneal macrophages (mouse (endogenous in peritoneal macrophages)). Nature of the assay: flow cytometry on cells; ImageStream X imaging flow cytometry; peritoneal wash cells (2 x 10^6) in 100 uL 1% BSA PBS stained with 0.125 ug mouse IgG-DyLight 405 and anti-CD11b-FITC, 30 min, room temperature; no Fc block.

Take “mouse IgG-DyLight 405 (fluorescently conjugated mouse monomeric IgG) (antibody)”: the percent of CD11b+ macrophages that bound exogenous IgG is 98.6%.
